Test results published in publication PMC3567212 (Biochemistry, 2012).

Tests used:
AUC [1] = molecular target: the molecule itself; assay: AUC
AUC [2] = molecular target: the molecule itself; assay: AUC; remark: listed apart in the source

B1: Rhizobium etli pyruvate carboxylase R472S (enzyme, UniProt Q2K340 1-1154, looked up)
chain: MPISKILVANRSEIAIRVFRAANELGIKTVAIWAEEDKLALHRFKADESYQVGRGPHLARDLGPIESYLSIDEVIRVAKLSGADAIHPGYGLLSESPEFVDACNKAGIIFIGPKADTMRQLGNKVAARNLAISVGVPVVPATEPLPDDMAEVAKMAAAIGYPVMLKASWGGGGRGMRVIRSEADLAKEVTEAKREAMAAFGKDEVYLEKLVERARHVESQILGDTHGNVVHLFERDCSVQRRNQKVVERAPAPYLSEAQRQELAAYSLKIAGATNYIGAGTVEYLMDADTGKFYFIEVNPRIQVEHTVTEVVTGIDIVKAQIHILDGAAIGTPQSGVPNQEDIRLNGHALQCRVTTEDPEHNFIPDYGRITAYRSASGFGIRLDGGTSYSGAIITRYYDPLLVKVTAWAPNPLEAISRMDRALREFRIRGVATNLTFLEAIIGHPKFRDNSYTTRFIDTTPELFQQVKRQDSATKLLTYLADVTVNGHPEAKDRPKPLENAARPVVPYANGNGVKDGTKQLLDTLGPKKFGEWMRNEKRVLLTDTTMRDGHQSLLATRMRTYDIARIAGTYSHALPNLLSLECWGGATFDVSMRFLTEDPWERLALIREGAPNLLLQMLLRGANGVGYTNYPDNVVKYFVRQAAKGGIDLFRVFDCLNWVENMRVSMDAIAEENKLCEAAICYTGDILNSARPKYDLKYYTNLAVELEKAGAHIIAVKDMAGLLKPAAAKVLFKALREATGLPIHFHTHDTSGIAAATVLAAVEAGVDAVDAAMDALSGNTSQPCLGSIVEALSGSERDPGLDPAWIRRISFYWEAVRNQYAAFESDLKGPASEVYLHEMPGGQFTNLKEQARSLGLETRWHQVAQAYADANQMFGDIVKVTPSSKVVGDMALMMVSQDLTVADVVSPDREVSFPESVVSMLKGDLGQPPSGWPEALQKKALKGEKPYTVRPGSLLKEADLDAERKVIEKKLEREVSDFEFASYLMYPKVFTDFALASDTYGPVSVLPTPAYFYGLADGEELFADIEKGKTLVIVNQAVSATDSQGMVTVFFELNGQPRRIKVPDRAHGATGAAVRRKAEPGNAAHVGAPMPGVISRVFVSSGQAVNAGDVLVSIEAMKMETAIHAEKDGTIAEVLVKAGDQIDAKDLLAVYGG
modifications: covalently attached biotin prosthetic group on the BCCP domain
AUC [1]
  stoichiometry N: 4
AUC [2]
  % tetramer: 72%

B2: Rhizobium etli pyruvate carboxylase R472K (enzyme, UniProt Q2K340 1-1154, looked up)
chain: MPISKILVANRSEIAIRVFRAANELGIKTVAIWAEEDKLALHRFKADESYQVGRGPHLARDLGPIESYLSIDEVIRVAKLSGADAIHPGYGLLSESPEFVDACNKAGIIFIGPKADTMRQLGNKVAARNLAISVGVPVVPATEPLPDDMAEVAKMAAAIGYPVMLKASWGGGGRGMRVIRSEADLAKEVTEAKREAMAAFGKDEVYLEKLVERARHVESQILGDTHGNVVHLFERDCSVQRRNQKVVERAPAPYLSEAQRQELAAYSLKIAGATNYIGAGTVEYLMDADTGKFYFIEVNPRIQVEHTVTEVVTGIDIVKAQIHILDGAAIGTPQSGVPNQEDIRLNGHALQCRVTTEDPEHNFIPDYGRITAYRSASGFGIRLDGGTSYSGAIITRYYDPLLVKVTAWAPNPLEAISRMDRALREFRIRGVATNLTFLEAIIGHPKFRDNSYTTRFIDTTPELFQQVKRQDKATKLLTYLADVTVNGHPEAKDRPKPLENAARPVVPYANGNGVKDGTKQLLDTLGPKKFGEWMRNEKRVLLTDTTMRDGHQSLLATRMRTYDIARIAGTYSHALPNLLSLECWGGATFDVSMRFLTEDPWERLALIREGAPNLLLQMLLRGANGVGYTNYPDNVVKYFVRQAAKGGIDLFRVFDCLNWVENMRVSMDAIAEENKLCEAAICYTGDILNSARPKYDLKYYTNLAVELEKAGAHIIAVKDMAGLLKPAAAKVLFKALREATGLPIHFHTHDTSGIAAATVLAAVEAGVDAVDAAMDALSGNTSQPCLGSIVEALSGSERDPGLDPAWIRRISFYWEAVRNQYAAFESDLKGPASEVYLHEMPGGQFTNLKEQARSLGLETRWHQVAQAYADANQMFGDIVKVTPSSKVVGDMALMMVSQDLTVADVVSPDREVSFPESVVSMLKGDLGQPPSGWPEALQKKALKGEKPYTVRPGSLLKEADLDAERKVIEKKLEREVSDFEFASYLMYPKVFTDFALASDTYGPVSVLPTPAYFYGLADGEELFADIEKGKTLVIVNQAVSATDSQGMVTVFFELNGQPRRIKVPDRAHGATGAAVRRKAEPGNAAHVGAPMPGVISRVFVSSGQAVNAGDVLVSIEAMKMETAIHAEKDGTIAEVLVKAGDQIDAKDLLAVYGG
modifications: covalently attached biotin prosthetic group on the BCCP domain
AUC [1]
  stoichiometry N: 4

B3: Rhizobium etli pyruvate carboxylase R427K (enzyme, UniProt Q2K340 1-1154, looked up)
chain: MPISKILVANRSEIAIRVFRAANELGIKTVAIWAEEDKLALHRFKADESYQVGRGPHLARDLGPIESYLSIDEVIRVAKLSGADAIHPGYGLLSESPEFVDACNKAGIIFIGPKADTMRQLGNKVAARNLAISVGVPVVPATEPLPDDMAEVAKMAAAIGYPVMLKASWGGGGRGMRVIRSEADLAKEVTEAKREAMAAFGKDEVYLEKLVERARHVESQILGDTHGNVVHLFERDCSVQRRNQKVVERAPAPYLSEAQRQELAAYSLKIAGATNYIGAGTVEYLMDADTGKFYFIEVNPRIQVEHTVTEVVTGIDIVKAQIHILDGAAIGTPQSGVPNQEDIRLNGHALQCRVTTEDPEHNFIPDYGRITAYRSASGFGIRLDGGTSYSGAIITRYYDPLLVKVTAWAPNPLEAISRMDRALREFKIRGVATNLTFLEAIIGHPKFRDNSYTTRFIDTTPELFQQVKRQDRATKLLTYLADVTVNGHPEAKDRPKPLENAARPVVPYANGNGVKDGTKQLLDTLGPKKFGEWMRNEKRVLLTDTTMRDGHQSLLATRMRTYDIARIAGTYSHALPNLLSLECWGGATFDVSMRFLTEDPWERLALIREGAPNLLLQMLLRGANGVGYTNYPDNVVKYFVRQAAKGGIDLFRVFDCLNWVENMRVSMDAIAEENKLCEAAICYTGDILNSARPKYDLKYYTNLAVELEKAGAHIIAVKDMAGLLKPAAAKVLFKALREATGLPIHFHTHDTSGIAAATVLAAVEAGVDAVDAAMDALSGNTSQPCLGSIVEALSGSERDPGLDPAWIRRISFYWEAVRNQYAAFESDLKGPASEVYLHEMPGGQFTNLKEQARSLGLETRWHQVAQAYADANQMFGDIVKVTPSSKVVGDMALMMVSQDLTVADVVSPDREVSFPESVVSMLKGDLGQPPSGWPEALQKKALKGEKPYTVRPGSLLKEADLDAERKVIEKKLEREVSDFEFASYLMYPKVFTDFALASDTYGPVSVLPTPAYFYGLADGEELFADIEKGKTLVIVNQAVSATDSQGMVTVFFELNGQPRRIKVPDRAHGATGAAVRRKAEPGNAAHVGAPMPGVISRVFVSSGQAVNAGDVLVSIEAMKMETAIHAEKDGTIAEVLVKAGDQIDAKDLLAVYGG
modifications: covalently attached biotin prosthetic group on the BCCP domain
AUC [1]
  stoichiometry N: 4
AUC [2]
  % tetramer: 75%
